Measurements published in publication PMC11643744, “New Conjugates of Vancomycin with Cell-Penetrating Peptides—Synthesis, Antimicrobial Activity, Cytotoxicity, and BBB Permeability Studies” (Molecules, 2024).
Peptide text beside a SMILES is read from it. * marks the point of attachment. Propioloyl = C#CC(=O)*

Key:
[1] = test system: normal human fibroblasts, BJ line (CRL-2522); test: Neutral red cytotoxicity assay
Experimental: Normal human fibroblasts, BJ line (CRL-2522™), Eagle’s Minimum Essential Medium (EMEM), and fetal bovine serum (FBS) were obtained from ATCC (Manassas, VA, USA). Cells were grown following ATCC guidelines in an EMEM medium supplemented with 10% FBS at 37 °C in a humidified atmosphere of 95% air and 5% CO2 in a HeraCell 150 incubator (Heraeus, Hanau, Germany).
The assay was performed as per previously published protocols with slight modifications. In brief, BJ cells were plated in 96-well tissue culture plates (Nest Scientific Biotechnology, Wuxi, China) at a density of 6 × 10^3 cells per well and allowed to attach for 24 h in EMEM supplemented with 10% FBS. After the incubation period, the medium was removed, and 10% dimethyl sulfoxide (DMSO)-treated cells (Sigma-Aldrich, St. Louis, MO, USA) were used as a positive control, while nontreated cells served as a negative control.
The cells were treated with peptides suspended in EMEM medium supplemented with 10% FBS and incubated for 24 h at 37 °C in a humidified atmosphere of 95% air and 5% CO2. After the incubation, the supernatants were discarded and replaced with 100 µL of non-supplemented EMEM containing 0.33% neutral red (Sigma-Aldrich) diluted 1:40. The cells were incubated for an additional 2 h at 37 °C. Following incubation, the neutral red medium was removed, and the cells were washed with 100 µL of phosphate-buffered saline (PBS) per well.
To extract the dye into the solution, the cells were treated with 150 µL of a solution containing 50% ethanol (Alchem, Torun, Poland), 49% distilled H2O, and 1% acetic acid (Alchem, Torun, Poland) and incubated under shaking at 37 °C for 10 min. Absorbance was measured at 540 nm using a Synergy H1 plate reader (BioTek Instruments, Winooski, VT, USA). The assay was performed in triplicate to ensure reproducibility.

PAMPA-BBB assay = test: PAMPA-BBB assay
Source text: This assay utilized a 96-well plate assembly consisting of a filter plate pre-coated with polar brain lipids (donor plate) and a receiver plate (acceptor plate). The phospholipid mixture used to coat the membrane was extracted from porcine polar brain lipids, with the following composition: 12.6% phosphatidylcholine, 33.1% phosphatidylethanolamine, 18.5% phosphatidylserine, 4.1% phosphatidylinositol, 0.8% phosphatidic acid, and 30.9% of other compounds, including cerebrosides, sulfatides, and pigments.
In each well of the donor filtration plate (Multiscreen Filter Plate, PVDF with a pore size of 0.45 µm), 5 µL of the phospholipid mixture in n-dodecane (20 mg/mL) was carefully applied to form the artificial membrane. After coating, 200 µL of phosphate-buffered saline (PBS at pH 7.4) containing 5% dimethyl sulfoxide (DMSO) as a co-solvent, and the test compound (at a concentration of 20 µM) was added to each well of the donor plate (in triplicate). […] The plate lid was then replaced and the resulting assembled donor–acceptor plates were incubated at room temperature for 20 h. After this time, the donor plate was removed and solutions from each well of both acceptor and donor plates were collected for further analysis. The concentrations of the tested compounds were determined by LC-MS. The analysis was conducted by UHPLC-MS system (Shimadzu Nexera X2 with LCMS-2020 detector) using a ReproSil Pure 120 ODS-3 column (Dr. Maisch GmbH, 100 × 2 mm, 2.4 µm particle size) with several gradients of ACN with 0.1% FA and 0.05% TFA at a flow rate of 0.3 mL/min. The eluted solution was monitored by an ESI-MS detector operated in a selected ion monitoring mode (SIM). […] CE=CD×VD+CA×VA/VD+VA

| SMILES | R, mass retention (PAMPA-BBB assay; 20 h incubation, mean ± SEM) | further results |
| --- | --- | --- |
| CN[C@H](CC(C)C)C(=O)N[C@H]1C(=O)N[C@@H](CC(N)=O)C(=O)N[C@H]2C(=O)N[C@H]3C(=O)N[C@H](C(=O)N[C@H](C(=O)NCCSSCCn4cc(C(=O)N[C@@H](Cc5ccc(O)cc5)C(=O)N[C@@H](C)C(=O)N[C@@H](CCCNC(=N)N)C(=O)N[C@@H](C)C(=O)N[C@@H](C)C(=O)N[C@@H](C)C(=O)N[C@@H](CCCNC(=N)N)C(=O)N[C@@H](CCC(N)=O)C(=O)N[C@@H](C)C(=O)N[C@@H](CCCNC(=N)N)C(=O)N[C@@H](C)C(N)=O)nn4)c4cc(O)cc(O)c4-c4cc3ccc4O)[C@H](O)c3ccc(c(Cl)c3)Oc3cc2cc(c3O[C@@H]2O[C@H](CO)[C@@H](O)[C@H](O)[C@H]2O[C@H]2C[C@](C)(N)[C@H](O)[C@H](C)O2)Oc2ccc(cc2Cl)[C@H]1O [compound 12] | 12.7 ± 2.2% | effect on cell viability ([1]; across the tested concentration range, 24 h): did not significantly affect cell viability; Papp at 20 h, 20 µM (PAMPA-BBB assay; pig, PAMPA, pH 7.4, Pe, effective permeability coefficient, 20 h incubation, 20 µM, pH 7.4, mean ± SEM): 0.036 ± 0.004 ×10⁻⁶ cm/s |
| CN[C@H](CC(C)C)C(=O)N[C@H]1C(=O)N[C@@H](CC(N)=O)C(=O)N[C@H]2C(=O)N[C@H]3C(=O)N[C@H](C(=O)N[C@H](C(=O)NCCOCCOCCOCCn4cc(C(=O)N[C@@H](CCCNC(=N)N)C(=O)N[C@@H](CCCNC(=N)N)C(=O)N[C@@H](CCCNC(=N)N)C(=O)N[C@@H](CCCNC(=N)N)C(=O)N[C@@H](CCCNC(=N)N)C(=O)N[C@@H](CCCNC(=N)N)C(=O)N[C@@H](CCCNC(=N)N)C(=O)N[C@@H](CCCNC(=N)N)C(=O)N[C@@H](CCCNC(=N)N)C(N)=O)nn4)c4cc(O)cc(O)c4-c4cc3ccc4O)[C@H](O)c3ccc(c(Cl)c3)Oc3cc2cc(c3O[C@@H]2O[C@H](CO)[C@@H](O)[C@H](O)[C@H]2O[C@H]2C[C@](C)(N)[C@H](O)[C@H](C)O2)Oc2ccc(cc2Cl)[C@H]1O [compound 15] | 2.7 ± 0.9% | – |
| CN[C@H](CC(C)C)C(=O)N[C@H]1C(=O)N[C@@H](CC(N)=O)C(=O)N[C@H]2C(=O)N[C@H]3C(=O)N[C@H](C(=O)N[C@H](C(=O)O)c4cc(O)cc(O)c4-c4cc3ccc4O)[C@H](O)c3ccc(c(Cl)c3)Oc3cc2cc(c3O[C@@H]2O[C@H](CO)[C@@H](O)[C@H](O)[C@H]2O[C@H]2C[C@](C)(NC(=O)CCOCCOCCOCCOCCn3cc(C(=O)N[C@@H](Cc4ccc(O)cc4)C(=O)NCC(=O)N[C@@H](CCCNC(=N)N)C(=O)N[C@@H](CCCCN)C(=O)N[C@@H](CCCCN)C(=O)N[C@@H](CCCNC(=N)N)C(=O)N[C@@H](CCCNC(=N)N)C(=O)N[C@@H](CCC(N)=O)C(=O)N[C@@H](CCCNC(=N)N)C(=O)N[C@@H](CCCNC(=N)N)C(=O)N[C@@H](CCCNC(=N)N)C(N)=O)nn3)[C@H](O)[C@H](C)O2)Oc2ccc(cc2Cl)[C@H]1O [compound 6] | 77.7 ± 0.3% | – |
| CN[C@H](CC(C)C)C(=O)N[C@H]1C(=O)N[C@@H](CC(N)=O)C(=O)N[C@H]2C(=O)N[C@H]3C(=O)N[C@H](C(=O)N[C@H](C(=O)O)c4cc(O)cc(O)c4-c4cc3ccc4O)[C@H](O)c3ccc(c(Cl)c3)Oc3cc2cc(c3O[C@@H]2O[C@H](CO)[C@@H](O)[C@H](O)[C@H]2O[C@H]2C[C@](C)(NC(=O)CCC(=O)NCCSSCCn3cc(C(=O)N[C@@H](Cc4ccc(O)cc4)C(=O)NCC(=O)N[C@@H](CCCNC(=N)N)C(=O)N[C@@H](CCCCN)C(=O)N[C@@H](CCCCN)C(=O)N[C@@H](CCCNC(=N)N)C(=O)N[C@@H](CCCNC(=N)N)C(=O)N[C@@H](CCC(N)=O)C(=O)N[C@@H](CCCNC(=N)N)C(=O)N[C@@H](CCCNC(=N)N)C(=O)N[C@@H](CCCNC(=N)N)C(N)=O)nn3)[C@H](O)[C@H](C)O2)Oc2ccc(cc2Cl)[C@H]1O [compound 8] | 31.5 ± 1.5% | – |
| C#CC(=O)N[C@@H](Cc1ccc(O)cc1)C(=O)N[C@@H](C)C(=O)N[C@@H](CCCNC(=N)N)C(=O)N[C@@H](C)C(=O)N[C@@H](C)C(=O)N[C@@H](C)C(=O)N[C@@H](CCCNC(=N)N)C(=O)N[C@@H](CCC(N)=O)C(=O)N[C@@H](C)C(=O)N[C@@H](CCCNC(=N)N)C(=O)N[C@@H](C)C(N)=O [compound 9] (Propioloyl-YARAAARQARA-NH2) | 6.7 ± 1.5% | – |
| CN[C@H](CC(C)C)C(=O)N[C@H]1C(=O)N[C@@H](CC(N)=O)C(=O)N[C@H]2C(=O)N[C@H]3C(=O)N[C@H](C(=O)N[C@H](C(=O)NCCSSCCn4cc(C(=O)N[C@@H](Cc5ccc(O)cc5)C(=O)NCC(=O)N[C@@H](CCCNC(=N)N)C(=O)N[C@@H](CCCCN)C(=O)N[C@@H](CCCCN)C(=O)N[C@@H](CCCNC(=N)N)C(=O)N[C@@H](CCCNC(=N)N)C(=O)N[C@@H](CCC(N)=O)C(=O)N[C@@H](CCCNC(=N)N)C(=O)N[C@@H](CCCNC(=N)N)C(=O)N[C@@H](CCCNC(=N)N)C(N)=O)nn4)c4cc(O)cc(O)c4-c4cc3ccc4O)[C@H](O)c3ccc(c(Cl)c3)Oc3cc2cc(c3O[C@@H]2O[C@H](CO)[C@@H](O)[C@H](O)[C@H]2O[C@H]2C[C@](C)(N)[C@H](O)[C@H](C)O2)Oc2ccc(cc2Cl)[C@H]1O [compound 7] | 23.8 ± 4.9% | – |
| O=C(O)Cc1ccccc1Nc1c(Cl)cccc1Cl [Diclofenac, reference compound] | – | R, mass retention (PAMPA-BBB assay; PAMPA, 20 h, 20 µM, pH 7.4): 12.0 ± 3.3%; Papp at 20 h, 20 µM (PAMPA-BBB assay; PAMPA, pH 7.4): 3.44 ± 0.1 ×10⁻⁶ cm/s |
| C[S+](C)[O-] [DMSO, dimethyl sulfoxide, reference compound] | – | cell viability [1]: approximately 21% |
| CN[C@H](CC(C)C)C(=O)N[C@H]1C(=O)N[C@@H](CC(N)=O)C(=O)N[C@H]2C(=O)N[C@H]3C(=O)N[C@H](C(=O)N[C@H](C(=O)NCCOCCOCCOCCn4cc(C(=O)N[C@@H](Cc5ccc(O)cc5)C(=O)NCC(=O)N[C@@H](CCCNC(=N)N)C(=O)N[C@@H](CCCCN)C(=O)N[C@@H](CCCCN)C(=O)N[C@@H](CCCNC(=N)N)C(=O)N[C@@H](CCCNC(=N)N)C(=O)N[C@@H](CCC(N)=O)C(=O)N[C@@H](CCCNC(=N)N)C(=O)N[C@@H](CCCNC(=N)N)C(=O)N[C@@H](CCCNC(=N)N)C(N)=O)nn4)c4cc(O)cc(O)c4-c4cc3ccc4O)[C@H](O)c3ccc(c(Cl)c3)Oc3cc2cc(c3O[C@@H]2O[C@H](CO)[C@@H](O)[C@H](O)[C@H]2O[C@H]2C[C@](C)(N)[C@H](O)[C@H](C)O2)Oc2ccc(cc2Cl)[C@H]1O [compound 5] | 8.7 ± 3.8% | – |
| CN[C@H](CC(C)C)C(=O)N[C@H]1C(=O)N[C@@H](CC(N)=O)C(=O)N[C@H]2C(=O)N[C@H]3C(=O)N[C@H](C(=O)N[C@H](C(=O)O)c4cc(O)cc(O)c4-c4cc3ccc4O)[C@H](O)c3ccc(c(Cl)c3)Oc3cc2cc(c3O[C@@H]2O[C@H](CO)[C@@H](O)[C@H](O)[C@H]2O[C@H]2C[C@](C)(NC(=O)CCOCCOCCOCCOCCn3cc(C(=O)N[C@@H](CCCNC(=N)N)C(=O)N[C@@H](CCCNC(=N)N)C(=O)N[C@@H](CCCNC(=N)N)C(=O)N[C@@H](CCCNC(=N)N)C(=O)N[C@@H](CCCNC(=N)N)C(=O)N[C@@H](CCCNC(=N)N)C(=O)N[C@@H](CCCNC(=N)N)C(=O)N[C@@H](CCCNC(=N)N)C(=O)N[C@@H](CCCNC(=N)N)C(N)=O)nn3)[C@H](O)[C@H](C)O2)Oc2ccc(cc2Cl)[C@H]1O [compound 16] | 37.3 ± 4.8% | – |
